# Measurements as given in patent US20150344570A1 (published 2015).
# T1: FcγRIIb (human, UniProt P31994 43-217)
# T1 construct: extracellular domain; Soluble extracellular domain with C-terminal His tag, used as analyte in Biacore; also called FcgRIIb; 2b; not shown: His tag attached to the C terminus
# T1 sequence (looked up): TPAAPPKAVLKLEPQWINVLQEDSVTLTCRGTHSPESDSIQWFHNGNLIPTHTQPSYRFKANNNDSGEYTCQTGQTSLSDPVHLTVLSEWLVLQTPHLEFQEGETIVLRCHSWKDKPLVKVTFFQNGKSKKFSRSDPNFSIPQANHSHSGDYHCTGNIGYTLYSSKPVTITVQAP
# B1: GpH7-B3 variant P271_02A/GpL16-k0 (antibody, human IgG1, kappa)
# heavy: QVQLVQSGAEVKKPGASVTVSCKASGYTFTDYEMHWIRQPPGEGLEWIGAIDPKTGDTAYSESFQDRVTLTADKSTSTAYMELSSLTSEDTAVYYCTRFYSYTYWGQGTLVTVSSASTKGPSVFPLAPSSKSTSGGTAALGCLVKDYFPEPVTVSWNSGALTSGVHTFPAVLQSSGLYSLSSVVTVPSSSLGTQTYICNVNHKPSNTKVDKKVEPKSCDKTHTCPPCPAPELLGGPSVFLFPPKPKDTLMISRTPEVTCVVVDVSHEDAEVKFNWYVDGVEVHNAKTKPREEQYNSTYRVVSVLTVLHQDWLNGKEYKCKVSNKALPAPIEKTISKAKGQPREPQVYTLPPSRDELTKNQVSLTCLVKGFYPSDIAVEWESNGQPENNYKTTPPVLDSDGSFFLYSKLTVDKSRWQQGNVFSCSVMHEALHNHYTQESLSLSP
# light: DIVMTQSPLSLPVTPGEPASISCQASESLVHSNRNTYLHWYLQKPGQSPQLLIYKVSNRFSGVPDRFSGSGSGTDFTLKISRVEAEDVGVYYCSQNTHVPPTFGQGTKVEIERTVAAPSVFIFPPSDEQLKSGTASVVCLLNNFYPREAKVQWKVDNALQSGNSQESVTEQDSKDSTYSLSSTLTLSKADYEKHKVYACEVTHQGLSSPVTKSFNRGEC
# notes: homodimerized IgG1, mutation in both H chains; also called Ho Ab
# B2: GpH7-A5/GpH7-B3 variant A327_01G/GpL16-k0 (antibody, human IgG1, kappa)
# heavy 1: not shown
# heavy 2: not shown
# light: B1 light
# notes: Heterodimerized anti-glypican-3 IgG1; alteration in the GpH7-B3 chain only; also called He Ab
# B3: GpH7-A5/GpH7-B3 variant N325_20W/GpL16-k0 (antibody, human IgG1, kappa)
# heavy 1: not shown
# heavy 2: not shown
# light: B1 light
# notes: as for B2
# B4: GpH7-A5/GpH7-B3 variant P331_15Y/GpL16-k0 (antibody, human IgG1, kappa)
# heavy 1: not shown
# heavy 2: not shown
# light: B1 light
# notes: as for B2
# B5: GpH7-A5/GpH7-B3 variant S239_06M/GpL16-k0 (antibody, human IgG1, kappa)
# heavy 1: not shown
# heavy 2: not shown
# light: B1 light
# notes: as for B2
# B6: GpH7-A5/GpH7-B3 variant P238_19Q/GpL16-k0 (antibody, human IgG1, kappa)
# heavy 1: not shown
# heavy 2: not shown
# light: B1 light
# notes: as for B2
# B7: GpH7-A5/GpH7-B3 variant N325_04F/GpL16-k0 (antibody, human IgG1, kappa)
# heavy 1: not shown
# heavy 2: not shown
# light: B1 light
# notes: as for B2
# B8: GpH7-A5/GpH7-B3 variant P331_03V/GpL16-k0 (antibody, human IgG1, kappa)
# heavy 1: not shown
# heavy 2: not shown
# light: B1 light
# notes: as for B2
# B9: GpH7-A5/GpH7-B3 variant S324_06M/GpL16-k0 (antibody, human IgG1, kappa)
# heavy 1: not shown
# heavy 2: not shown
# light: B1 light
# notes: as for B2
# B10: GpH7-A5/GpH7-B3 variant G237_13S/GpL16-k0 (antibody, human IgG1, kappa)
# heavy 1: not shown
# heavy 2: not shown
# light: B1 light
# notes: as for B2
# B11: GpH7-A5/GpH7-B3 variant S239_03V/GpL16-k0 (antibody, human IgG1, kappa)
# heavy 1: not shown
# heavy 2: not shown
# light: B1 light
# notes: as for B2
# B12: GpH7-A5/GpH7-B3 variant L234_20W/GpL16-k0 (antibody, human IgG1, kappa)
# heavy 1: not shown
# heavy 2: not shown
# light: B1 light
# notes: as for B2
# B13: GpH7-A5/GpH7-B3 variant G236_10E/GpL16-k0 (antibody, human IgG1, kappa)
# heavy 1: not shown
# heavy 2: not shown
# light: B1 light
# notes: as for B2
# B14: GpH7-A5/GpH7-B3 variant L328_02A/GpL16-k0 (antibody, human IgG1, kappa)
# heavy 1: not shown
# heavy 2: not shown
# light: B1 light
# notes: as for B2
# B15: GpH7-A5/GpH7-B3 variant L235_04F/GpL16-k0 (antibody, human IgG1, kappa)
# heavy 1: not shown
# heavy 2: not shown
# light: B1 light
# notes: as for B2
# B16: GpH7-A5/GpH7-B3 variant S267_07I/GpL16-k0 (antibody, human IgG1, kappa)
# heavy 1: not shown
# heavy 2: not shown
# light: B1 light
# notes: as for B2
# B17: GpH7-A5/GpH7-B3 variant P331_06M/GpL16-k0 (antibody, human IgG1, kappa)
# heavy 1: not shown
# heavy 2: not shown
# light: B1 light
# notes: as for B2
# B18: GpH7-A5/GpH7-B3 variant P331_04F/GpL16-k0 (antibody, human IgG1, kappa)
# heavy 1: not shown
# heavy 2: not shown
# light: B1 light
# notes: as for B2
# B19: GpH7-A5/GpH7-B3 variant S239_07I/GpL16-k0 (antibody, human IgG1, kappa)
# heavy 1: not shown
# heavy 2: not shown
# light: B1 light
# notes: as for B2
# B20: GpH7-A5/GpH7-B3 variant P238_20W/GpL16-k0 (antibody, human IgG1, kappa)
# heavy 1: not shown
# heavy 2: not shown
# light: B1 light
# notes: as for B2
# B21: GpH7-A5/GpH7-B3 variant N325_07I/GpL16-k0 (antibody, human IgG1, kappa)
# heavy 1: not shown
# heavy 2: not shown
# light: B1 light
# notes: as for B2
# B22: GpH7-A5/GpH7-B3 variant V266_08L/GpL16-k0 (antibody, human IgG1, kappa)
# heavy 1: not shown
# heavy 2: not shown
# light: B1 light
# notes: as for B2
# B23: GpH7-A5/GpH7-B3 variant N325_08L/GpL16-k0 (antibody, human IgG1, kappa)
# heavy 1: not shown
# heavy 2: not shown
# light: B1 light
# notes: as for B2
# B24: GpH7-A5/GpH7-B3 variant L328_07I/GpL16-k0 (antibody, human IgG1, kappa)
# heavy 1: not shown
# heavy 2: not shown
# light: B1 light
# notes: as for B2
# B25: GpH7-A5/GpH7-B3 variant N325_09D/GpL16-k0 (antibody, human IgG1, kappa)
# heavy 1: not shown
# heavy 2: not shown
# light: B1 light
# notes: as for B2
# B26: GpH7-A5/GpH7-B3 variant L328_13S/GpL16-k0 (antibody, human IgG1, kappa)
# heavy 1: not shown
# heavy 2: not shown
# light: B1 light
# notes: as for B2
# B27: GpH7-A5/GpH7-B3 variant P331_10E/GpL16-k0 (antibody, human IgG1, kappa)
# heavy 1: not shown
# heavy 2: not shown
# light: B1 light
# notes: as for B2
# B28: GpH7-A5/GpH7-B3 variant L328_06M/GpL16-k0 (antibody, human IgG1, kappa)
# heavy 1: not shown
# heavy 2: not shown
# light: B1 light
# notes: as for B2
# B29: GpH7-A5/GpH7-B3 variant A327_18N/GpL16-k0 (antibody, human IgG1, kappa)
# heavy 1: not shown
# heavy 2: not shown
# light: B1 light
# notes: as for B2
# B30: GpH7-A5/GpH7-B3 variant P238_16H/GpL16-k0 (antibody, human IgG1, kappa)
# heavy 1: not shown
# heavy 2: not shown
# light: B1 light
# notes: as for B2
# B31: GpH7-A5/GpH7-B3 variant P331_07I/GpL16-k0 (antibody, human IgG1, kappa)
# heavy 1: not shown
# heavy 2: not shown
# light: B1 light
# notes: as for B2
# B32: GpH7-A5/GpH7-B3 variant N325_06M/GpL16-k0 (antibody, human IgG1, kappa)
# heavy 1: not shown
# heavy 2: not shown
# light: B1 light
# notes: as for B2
# B33: GpH7-A5/GpH7-B3 variant N325_03V/GpL16-k0 (antibody, human IgG1, kappa)
# heavy 1: not shown
# heavy 2: not shown
# light: B1 light
# notes: as for B2
# B34: GpH7-A5/GpH7-B3 variant N325_01G/GpL16-k0 (antibody, human IgG1, kappa)
# heavy 1: not shown
# heavy 2: not shown
# light: B1 light
# notes: as for B2
# B35: GpH7-A5/GpH7-B3 variant S239_05P/GpL16-k0 (antibody, human IgG1, kappa)
# heavy 1: not shown
# heavy 2: not shown
# light: B1 light
# notes: as for B2
# B36: GpH7-A5/GpH7-B3 variant N325_13S/GpL16-k0 (antibody, human IgG1, kappa)
# heavy 1: not shown
# heavy 2: not shown
# light: B1 light
# notes: as for B2
# B37: GpH7-A5/GpH7-B3 variant V266_07I/GpL16-k0 (antibody, human IgG1, kappa)
# heavy 1: not shown
# heavy 2: not shown
# light: B1 light
# notes: as for B2
# B38: GpH7-A5/GpH7-B3 variant L328_04F/GpL16-k0 (antibody, human IgG1, kappa)
# heavy 1: not shown
# heavy 2: not shown
# light: B1 light
# notes: as for B2
# Target: T2, FcγRIa (human, UniProt P12314 16-292)
# T2 construct: extracellular domain; soluble extracellular domain with C-terminal His tag, expressed in FreeStyle293 cells; also called FcgRI; FcgRIa
# Assay: SPR (Biacore), captured antibody, FcγRIa analyte; relative to HoCon Ab GpH7-B3/GpL16-k0 = 100
# T2 sequence (P12314 16-292): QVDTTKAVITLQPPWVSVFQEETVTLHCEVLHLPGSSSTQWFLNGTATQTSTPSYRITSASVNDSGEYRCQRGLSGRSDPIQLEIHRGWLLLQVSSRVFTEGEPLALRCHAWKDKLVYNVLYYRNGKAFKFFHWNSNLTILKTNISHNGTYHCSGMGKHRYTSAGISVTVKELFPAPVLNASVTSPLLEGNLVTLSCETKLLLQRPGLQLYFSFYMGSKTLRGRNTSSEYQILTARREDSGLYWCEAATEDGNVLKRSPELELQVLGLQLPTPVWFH
row,Binder,Ho/Con_1a
1,B1,102 % of control

# Target: T1, FcγRIIb
# Assay: SPR (Biacore), antibody captured, FcγR as analyte; relative to GpH7-A5/GpH7-B3/GpL16-k0 = 100
# Procedure: (§1) The heterodimerized antibodies He Abs in which one of the H chains was introduced with an alteration were assayed for their binding activities to each activating FcγR and inhibitory FcγR according to the method described in Example 4. […] The activating FcγRs in FIGS. 26, 27, 28, and 29 are FcγRIa, FcγRIIa (R), FcγRIIa (H), and FcγRIIIa, respectively.
# (§2) Analysis of interaction between objective antibody and the FcγR was carried out using Biacore T100 (GE Healthcare). HBS-EP+ (GE Healthcare) was used as the running buffer, and the measurement temperature was set to 25° C. Chips produced by immobilizing the antigen peptide by the amine coupling method to a Series S Sencor Chip CM5 (GE Healthcare), or alternatively, chips produced by allowing preliminarily biotinylated antigen peptides to interact with and immobilize onto a Series S Sensor Chip SA (certified) (GE Healthcare) were used. Antibodies of interest were captured onto an antigen peptide-immobilized chip, and allowed to interact to each FcγR diluted with running buffer. To regenerate and repeatedly use the chip, the antibodies captured on the chip were washed off by reacting 10 mM glycine-HCl, pH 1.5.
row,Binder,He/Con_2b
1,B2,116 % of control (=100)
2,B3,169 % of control (=100)
3,B4,114 % of control (=100)
4,B5,101 % of control (=100)
5,B6,110 % of control (=100)
6,B7,143 % of control (=100)
7,B8,119 % of control (=100)
8,B9,112 % of control (=100)
9,B10,111 % of control (=100)
10,B11,108 % of control (=100)
11,B12,114 % of control (=100)
12,B13,110 % of control (=100)
13,B14,144 % of control (=100)
14,B15,118 % of control (=100)
15,B16,192 % of control (=100)
16,B17,102 % of control (=100)
17,B18,110 % of control (=100)
18,B19,107 % of control (=100)
19,B20,123 % of control (=100)

row,Binder,He/Con_2b
1,B21,171 % of control (=100)
2,B22,236 % of control (=100)
3,B23,197 % of control (=100)
4,B24,160 % of control (=100)
5,B25,124 % of control (=100)
6,B26,149 % of control (=100)
7,B27,116 % of control (=100)
8,B28,142 % of control (=100)
9,B29,113 % of control (=100)
10,B30,115 % of control (=100)
11,B31,114 % of control (=100)
12,B32,217 % of control (=100)
13,B33,111 % of control (=100)
14,B34,101 % of control (=100)
15,B35,102 % of control (=100)
16,B36,177 % of control (=100)
17,B37,152 % of control (=100)
18,B38,219 % of control (=100)

# Target: T3, FcγRIa (human, UniProt P12314 16-292)
# T3 construct: extracellular domain; Soluble extracellular domain with C-terminal His tag, used as analyte in Biacore; also called FcgRI; 1a; not shown: His tag attached to the C terminus
# Assay: as above
# Procedure: as §1, §2
# T3 sequence (P12314 16-292): as above
row,Binder,He/Con_1a
1,B2,99 % of control (=100)
2,B3,93.8 % of control (=100)
3,B4,96 % of control (=100)
4,B5,99 % of control (=100)
5,B6,97.6 % of control (=100)
6,B7,93.2 % of control (=100)
7,B8,92 % of control (=100)
8,B9,99.2 % of control (=100)
9,B10,92.2 % of control (=100)
10,B11,95.9 % of control (=100)
11,B12,98.6 % of control (=100)
12,B13,93.7 % of control (=100)
13,B14,98.5 % of control (=100)
14,B15,97.1 % of control (=100)
15,B16,100 % of control (=100)
16,B17,93.6 % of control (=100)
17,B18,95.5 % of control (=100)
18,B19,97.8 % of control (=100)
19,B20,99.9 % of control (=100)

row,Binder,He/Con_1a
1,B21,94.8 % of control (=100)
2,B22,98.1 % of control (=100)
3,B23,97.5 % of control (=100)
4,B24,99.4 % of control (=100)
5,B25,99.9 % of control (=100)
6,B26,99 % of control (=100)
7,B27,95 % of control (=100)
8,B28,98.7 % of control (=100)
9,B29,97.7 % of control (=100)
10,B30,96 % of control (=100)
11,B31,93.4 % of control (=100)
12,B32,97.6 % of control (=100)
13,B33,95.6 % of control (=100)
14,B34,97.1 % of control (=100)
15,B35,85.3 % of control (=100)
16,B36,96.8 % of control (=100)
17,B37,99.3 % of control (=100)
18,B38,97.9 % of control (=100)
